Where “and” joins values, the source holds several entries; their conditions need not be identical. Identical values can stand only once.
molecular target: T1, NrdR (EcoNrdR) (Escherichia coli K-12 MG1655) (UniProt P0A8D0); experiment: MST; settings: 17 mM Tris-HCl pH 8.6 (room temperature), 100 mM NaCl, 7 mM MgCl2, 0.33 mM TCEP, 0.025% Tween-20, nucleotide effectors 1 mM each, 5 nM Cy5-dsDNA, low values mean tight binding
T1 sequence: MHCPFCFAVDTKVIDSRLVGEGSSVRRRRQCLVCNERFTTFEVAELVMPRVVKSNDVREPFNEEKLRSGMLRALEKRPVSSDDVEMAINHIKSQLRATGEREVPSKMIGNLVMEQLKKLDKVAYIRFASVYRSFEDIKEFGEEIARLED

| Sequence | Kd |
| --- | --- |
| GCAAAGCACTATATATAGACTTTAAAATGCGTCCCAACCCAATATGTTGTATTAATC (double strand) [nrdDG promoter] | 160 nM and 171 nM and 152 nM |
| CATACCCCCTATATATAGTGTTCTAAGCAGCTTCCCGTACTACAGGTAGTCTGCATG (double strand) [nrdAB promoter box 1+2] | 128 nM and 113 nM and 96 nM |
| ACTATTTGCTATATATTGTGTGGTTGAATCTTTTTTCAACTACATCTAGTATCTCTG (double strand) [nrdHIEF promoter (nrdEF_Cy5)] | 138 nM and 328 nM and 187 nM |

Source: article PMC12176259, “Bacterial transcriptional repressor NrdR – a flexible multifactorial nucleotide sensor” (The Febs Journal, 2025)
